# According to article PMC6635525:
# Biological target: TNF receptor-associated factor 2 (TRAF2) (human (endogenous in HEK293)) (UniProt Q12933)
# Chain of UniProt Q12933 (Q12933 whole entry): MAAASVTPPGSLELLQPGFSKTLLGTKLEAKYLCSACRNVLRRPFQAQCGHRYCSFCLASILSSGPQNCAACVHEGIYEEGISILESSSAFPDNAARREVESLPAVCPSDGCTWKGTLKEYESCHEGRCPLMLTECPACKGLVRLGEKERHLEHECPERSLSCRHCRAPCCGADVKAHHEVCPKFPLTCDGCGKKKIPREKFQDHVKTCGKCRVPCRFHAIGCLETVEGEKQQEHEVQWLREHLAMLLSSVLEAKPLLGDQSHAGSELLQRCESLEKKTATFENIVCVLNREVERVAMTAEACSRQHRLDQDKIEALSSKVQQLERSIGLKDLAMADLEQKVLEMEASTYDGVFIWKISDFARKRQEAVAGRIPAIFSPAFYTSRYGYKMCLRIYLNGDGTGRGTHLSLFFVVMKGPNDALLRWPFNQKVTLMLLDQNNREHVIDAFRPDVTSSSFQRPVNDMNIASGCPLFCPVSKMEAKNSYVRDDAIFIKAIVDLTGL
row,Substance,"NF-κB luciferase reporter activity in transiently transfected HEK293 reporter cells, decrease compared to full-length GRA15II-51–550 [%]"
1,"GRA15II-51-550 with the deletion SQQE430-433, fused to GFP (from UniProt A0A125YGQ9 51-550) (domain or fragment)",60
2,"GRA15II-51-550 with the deletions AAEE160-163/SQQE430-433, fused to GFP (from UniProt A0A125YGQ9 51-550) (domain or fragment)",75
3,"GRA15II-51-550 with the deletion AAEE160-163, fused to GFP (from UniProt A0A125YGQ9 51-550) (domain or fragment)",60
